Test results published in patent publication US20110086768A1.

Target: FLAG-transferrin fusion (pREX1235): modified transferrin (mTf) with a FLAG Tag at the N-terminus and the human GPI sequence at the C-terminus, expressed in HEK-293 cells (human) (UniProt P02787)
Assay: FACS of transfected HEK-293 cells with mouse anti-FLAG BioM2 and goat anti-mouse-APC

Chain of UniProt P02787 (P02787 other isoform, or with tags, fused parts or gaps limits assumed): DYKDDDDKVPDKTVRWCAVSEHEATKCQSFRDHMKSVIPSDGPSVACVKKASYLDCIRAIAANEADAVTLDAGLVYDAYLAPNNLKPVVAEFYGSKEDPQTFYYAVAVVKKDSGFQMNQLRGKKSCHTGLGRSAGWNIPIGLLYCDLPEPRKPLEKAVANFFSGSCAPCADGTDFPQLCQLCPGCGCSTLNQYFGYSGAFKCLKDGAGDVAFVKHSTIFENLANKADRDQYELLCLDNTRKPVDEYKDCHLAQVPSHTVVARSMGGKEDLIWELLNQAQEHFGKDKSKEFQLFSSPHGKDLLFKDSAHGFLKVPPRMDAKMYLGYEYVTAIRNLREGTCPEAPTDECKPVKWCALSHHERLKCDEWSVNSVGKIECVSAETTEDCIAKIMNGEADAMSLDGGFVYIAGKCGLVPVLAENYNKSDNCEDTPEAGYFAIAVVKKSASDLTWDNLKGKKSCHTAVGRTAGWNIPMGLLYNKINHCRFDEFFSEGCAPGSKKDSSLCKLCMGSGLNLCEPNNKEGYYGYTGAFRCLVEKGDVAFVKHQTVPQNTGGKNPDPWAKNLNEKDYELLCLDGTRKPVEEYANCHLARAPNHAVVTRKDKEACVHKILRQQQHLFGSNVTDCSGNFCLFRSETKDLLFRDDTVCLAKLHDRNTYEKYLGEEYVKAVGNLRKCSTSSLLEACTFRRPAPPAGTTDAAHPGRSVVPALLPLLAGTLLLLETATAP

mouse anti-FLAG BioM2 (Sigma) (antibody)
fold increase in staining relative to mock-transfected cells: 4 fold
